Target: His-RNMT (human, UniProt O43148 1-476)
Experiment: pull-down; 2 μg GST or GST-RAM with equimolar His-RNMT and glutathione sepharose; 50 mM Tris–Cl pH 7.5, 250 mM NaCl, 0.03% Brij-35, 1 mM DTT, 4°C, 1 h; Coomassie stain
Details: both partners purified

His-RNMT, sequence (O43148 whole entry): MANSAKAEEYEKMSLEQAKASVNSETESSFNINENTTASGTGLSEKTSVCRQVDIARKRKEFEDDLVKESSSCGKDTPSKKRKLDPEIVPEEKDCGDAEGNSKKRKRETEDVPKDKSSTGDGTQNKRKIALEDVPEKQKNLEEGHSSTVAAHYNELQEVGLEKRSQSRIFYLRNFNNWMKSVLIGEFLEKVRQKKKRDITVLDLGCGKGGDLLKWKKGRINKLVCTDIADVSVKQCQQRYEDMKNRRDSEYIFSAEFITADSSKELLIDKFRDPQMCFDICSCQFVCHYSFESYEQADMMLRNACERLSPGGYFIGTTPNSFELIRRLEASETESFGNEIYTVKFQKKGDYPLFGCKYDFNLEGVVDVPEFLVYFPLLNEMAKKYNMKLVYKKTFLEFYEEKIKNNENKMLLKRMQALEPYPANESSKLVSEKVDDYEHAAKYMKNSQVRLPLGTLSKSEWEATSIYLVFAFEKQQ

TDTAEAVPKFEEMFASRFTENDKEYQEYLKRPPESPPIVEEWNS (domain or fragment, human, UniProt Q9BTL3 2-45, looked up) [GST-RAM 2–45]
binding result: binds

Source: article PMC5137418 (Nucleic Acids Research, 2016)
